Test [1] concerns the target T1, human LY6G6D-Fc (UniProt O95868 20-104).
T1 chain: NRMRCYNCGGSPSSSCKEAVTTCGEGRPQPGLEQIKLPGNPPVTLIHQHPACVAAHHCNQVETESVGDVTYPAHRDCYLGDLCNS
Kind of test: BIAcore; 37 C. In general terms: In SPR one partner is held on a chip, and binding of the other changes the refractive index at the surface.

The next test has as its target Chimeric 1G4. The test can be described thus: Biacore.
For another test, the target named is GNT. The test can be described thus: BIAcore.
For another test, the target named is QNV. The test can be described thus: BIAcore.
In a further test the target is Parental NNT. Kind of test: BIAcore.
The target of another test is ANT. The test can be described thus: BIAcore.
Another test addresses SNT. Kind of test: BIAcore.
For the next test, the target named is SNA. The test can be described thus: BIAcore.
Another test addresses SNV. The test can be described thus: BIAcore.
Another test deals with QNT. Kind of test: BIAcore.
Another test deals with NNV. The test can be described thus: BIAcore.
The next test has as its target NNA. Kind of test: BIAcore.
The target in test [2] is hu.20A12.IA.QNV.H12(V3-23).L2(K1-5). The test can be described thus: BIAcore; 37 C.
The target of test [3] is hu.20A12.IA.GNT.H12(V3-23).L2(K1-5). Kind of test: BIAcore; 37 C.
In test [4] the target is hu.20A12.IA.SNA.H12(V3-23).L2(K1-5). Kind of test: BIAcore; 37 C.
The target in a further test is 4H7. Kind of test: BIAcore; 37 C.
Another test concerns the target IS. Kind of test: BIAcore.
Another test concerns the target SA. The test can be described thus: BIAcore.
In another test the target is SS. Kind of test: BIAcore.
The target of another test is T2, human Ly6G6D polypeptide (UniProt O95868 20-104).
T2 chain: T1 chain
Kind of test: BIAcore.

Test [5] has as its target T1, human LY6G6D-Fc. The test can be described thus: BIAcore; 37 C.

Positions count from the first letter of the chain named. Numbers in names are those of the source. Where two headings read alike, the source gives them in different places.

B1: rb20A12.IA (C35I-C50A) chimeric Fab (Fab, V domains shown)
VH: QQQLEESGGDLVKPGASLTLTCTASGFDFVNNAMIWVRQAPGKGLEWIAALSFADNTAYYATWASGRFTISKISSTTVTLRMTSLTGADTATYFCMRGDLWGPGTLVTVSS
VL: DIVMTQTPSSVSAAVGGTVTINCQASESITRYLNWYQQKPGQPPKLLIYDASKLPSGVPSRFKGSGSGTQFTLTTSDLECADAATYYCQSTSFRGRSYNNTFGGGTEVVVK
B1: in the test with human LY6G6D-Fc [1], the affinity, expressed as Kd, was 0.704 nM.

B2: LY6G6D (other)
chain: T1 chain
For B2, the Kd (in general, the free concentration of one partner at which half of the binding sites on the other are occupied at equilibrium, for simple one-to-one binding) in the test with Chimeric 1G4 came out at 2.7 nM; with GNT it was 0.34 nM; with QNV it was 0.22 nM; in the test with Parental NNT, 0.43 nM; with ANT, 0.26 nM; in the test with SNT it was 0.25 nM. Moreover, the dissociation constant Kd with SNA came to 0.27 nM; with SNV, 0.23 nM; with QNT it was 0.28 nM; with NNV, 0.22 nM; with NNA, 0.26 nM.

B3: Ly6G6D (Fc fusion)
chain: T1 chain
Consider B3, for which the equilibrium dissociation constant (Kd) in test [2] amounted to 0.0335 nM; in test [3], 0.122 nM; in test [4], 0.105 nM; with 4H7, 0.36 nM.

B4: Ly6G6D (other)
chain: T1 chain
Take B4: the figures for the Kd with IS, in the test with SA and with SS were 1.26 nM, 2.74 nM and 2.7 nM, respectively.

B5: hu6E10.K3-20.V3-53 (L1H1) (antibody, V domains shown)
VH: EQQLVESGGGLIQPGGSLRLSCAVSGLSLSTNSINWVRQAPGKGLEWIGYIYHGDGIADYASWAKGRFTISKDSSKNTVYLQMNSLRAEDTAVYFCASGAGYSLFTLWGPGTLVTVSS
VL: EAVLTQSPGTLSLSPGERATLSCQSSESVWHNNWLAWFQQKPGQRPRLLIYGASTLASGVPDRFSGSGSGTDFTLTISRLEPEDFAVYYCAGGYSSSDAHVFGGGTKVEIK
In turn, B5 gave an equilibrium dissociation constant (Kd) with human Ly6G6D polypeptide of 1.3 nM.

B6: hu6E10.K3-20.V3-48 (antibody, V domains shown)
VH: B5 VH with I12V, S75A, T78S
VL: B5 VL
B6 had a dissociation constant (Kd) in the test with human Ly6G6D polypeptide of 1.3 nM.

B7: hu6E10.K4-1.V3-48 (antibody, V domains shown)
VH: B5 VH with I12V, S75A, T78S
VL: DAVLTQSPDSLAVSLGERATINCQSSESVWHNNWLAWFQQKPGQRPKLLIYGASTLASGVPDRFSGSGSGTDFTLTISSLQAEDVAVYYCAGGYSSSDAHVFGGGTKVEIK
As for B7, the dissociation constant (Kd) with human Ly6G6D polypeptide was 1.41 nM.

B8: hu6E10.K4-1.V3-53 (antibody, V domains shown)
VH: B5 VH
VL: B7 VL
Molecule B8 came in with a Kd in the test with human Ly6G6D polypeptide of 1.66 nM.

B9: 1G4 Fab (Fab, V domains shown)
VH: EVQLVQSGAEVKKPGASVKVSCKASGYTFTTYVMHWVRQAPGQGLEWMGYINPYNDGTKYNEKFKGRVTMTRDTSISTAYMELSRLRSDDTAVYYCGRRNFDYWGQGTLVTVSS
VL: DIVMTQSPDSLAVSLGERATINCKSSQSLLLSGNQENYLAWHQQKPGQPPKTLITWASTRISGVPDRFSGSGSGTDFTLTISSLQAEDVAVYYCQQSYSAPYTFGGGTKVEIKR
As to B9, in the test with human LY6G6D-Fc [5], the affinity, expressed as Kd, was 1.45 nM.

B10: hu6E10.K1-5.V4-4 (antibody, V domains shown)
VH: EQQLQESGPGLVKPPGTLSLTCAVSGLSLSTNSINWVRQPPGKGLEWIGYIYHGDGIADYASWAKGRFTISKDSSKTQVSLKLSSVTAADTAVYFCASGAGYSLFTLWGPGTLVTVSS
VL: DAQLTQSPSTLSASVGDRVTITCQSSESVWHNNWLAWFQQKPGKRPKLLIYGASTLASGVPSRFSGSGSGTEFTLTISSLQPDDFATYYCAGGYSSSDAHVFGGGTKVEIK
B10 had an equilibrium dissociation constant (Kd) with human Ly6G6D polypeptide of 3.34 nM.

B11: hu6E10.K3-20.V4-4 (antibody, V domains shown)
VH: B10 VH
VL: B5 VL
For the molecule B11, binding with human Ly6G6D polypeptide was characterised by a dissociation constant (Kd) of 3.11 nM.

B12: hu6E10.K1-5.V3-53 (L1H1) (antibody, V domains shown)
VH: B5 VH
VL: B10 VL
B12 showed a Kd with human Ly6G6D polypeptide of 1.63 nM.

B13: hu6E10.K1-5.V3-48 (antibody, V domains shown)
VH: B5 VH with I12V, S75A, T78S
VL: B10 VL
In the test with human Ly6G6D polypeptide, B13 had a Kd of 1.03 nM.

B14: hu6E10.K4-1.V4-4 (antibody, V domains shown)
VH: B10 VH
VL: B7 VL
On to B14, for which the affinity in the test with human Ly6G6D polypeptide, expressed as Kd, was 3.6 nM.

The record behind these values is patent publication US20210179715A1 (published 2021).
